Values of other authors in publication PMC7751257.

Target: Spike RBD RBD (SARS-CoV-2) (UniProt P0DTC2)

## SBP1 α1 helix 23-mer (from UniProt Q9BYF1)
  Kd: 47 nM
